The Kd is the concentration at which binding is half-saturated.

The assay concerns the target collagen. Briefly: SPR (Biacore 2000), collagen immobilised on CM-3 chip, peptide as analyte, from on-off binding kinetics.

With RRANAALKAGELYKSILYGC [peptide … (SILY)], the Kd worked out at 1200 nM.

(Values after patent US20150038427A1.)
